Experimental data reported in patent US20160091504A1 (UNIVERSITE LAVAL, published 2016).

What was measured:
[1] = target: p65 subunit of NF-κB expressed from pCMV-p65 (Homo sapiens (Human)) (UniProt Q04206); assay: cell-based or functional assay
[2] = target: T1, p65 subunit of NF-κB expressed from pCMV-p65 (Homo sapiens (Human), UniProt Q04206 1-551, limits assumed); assay: cell-based or functional assay
[3] = target: T1, p65 subunit of NF-κB expressed from …; assay: co-immunoprecipitation from transfected BV-2 cells

T1 sequence (Q04206 whole entry S180P): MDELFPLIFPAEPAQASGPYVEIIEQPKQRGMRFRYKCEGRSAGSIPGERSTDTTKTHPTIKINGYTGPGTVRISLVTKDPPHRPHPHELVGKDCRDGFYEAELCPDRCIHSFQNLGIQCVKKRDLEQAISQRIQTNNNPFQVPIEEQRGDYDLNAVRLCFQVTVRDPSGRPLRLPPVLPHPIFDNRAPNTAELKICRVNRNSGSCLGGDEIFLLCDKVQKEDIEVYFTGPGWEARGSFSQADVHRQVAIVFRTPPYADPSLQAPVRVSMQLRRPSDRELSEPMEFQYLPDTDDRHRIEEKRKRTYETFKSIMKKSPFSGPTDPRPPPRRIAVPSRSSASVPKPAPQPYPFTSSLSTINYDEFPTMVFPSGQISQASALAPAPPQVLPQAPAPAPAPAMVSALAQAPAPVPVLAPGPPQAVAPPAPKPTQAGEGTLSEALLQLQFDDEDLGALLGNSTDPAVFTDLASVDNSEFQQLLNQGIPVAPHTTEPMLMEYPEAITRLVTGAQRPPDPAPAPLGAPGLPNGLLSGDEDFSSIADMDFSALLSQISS
Sequence of p65 subunit of NF-κB expressed from pCMV-p65 (Homo sapiens (Human)) (Q04206 whole entry S180P): as above

endogenous mouse TDP-43 (from UniProt Q921F2 1-414)
decrease in NF-κB activation (4κB^wt-luc) with TDP-43 siRNA versus scrambled siRNA, 5 ng pCMV-p65 [1]: 3 fold
decrease in NF-κB activation (4κB^wt-luc) with TDP-43 siRNA versus scrambled siRNA, 50 ng pCMV-p65 [1]: 2 fold
decrease in NF-κB activation (4κB^wt-luc) with TDP-43 siRNA versus scrambled siRNA, 10 and 20 ng pCMV-p65 [1]: 2.5 fold

B1: TDP-43^ΔNR1-30 (31-81 and 98-176 AAs), N-terminal and RRM-1 deletion mutant with the NLS signal attached (other)
chain: MSEYIRVTEDENDEPIEIPSEDDGTVLLSTKRKMDETDASSAVKVKLPNSKQSQDEPLRSRKVFVGRCTEDMTEDELREFFSQYGDVMDVFIPKPFRAFAFVTFADDQIAQSLCGEDLIIKGISVHISNAEPKHNSNRQLERSGRFGGNPGGFGNQGGFGNSRGGGAGLGNNQGSNMGGGMNFGAFSINPAMMAAAQAALQSSWGMMGMLASQQNQSGPSGNNQNQGNMQREPNQAFGSGNNSYSGSNSGAAIGWGSASNAGSGSGFNGGFGSSMDSKSSGWGM
notes: The printed ranges in brackets are read as the deleted residues (31-81 and 98-176); not shown: HA (hemagglutinin) tag at the extreme C-terminus
level of NF-κB activation detected by the 4κB^wt-luc reporter assay [2]: 6 fold lower
binding result [3]: no binding

B2: TDP-43^ΔN (1-105AAs), HA-tagged deletion mutant (other, not shown: small tags and cut ends)
chain: LIVLGLPWKTTEQDLKEYFSTFGEVLMVQVKKDLKTGHSKGFGFVRFTEYETQVKVMSQRHMIDGRWCDCKLPNSKQSQDEPLRSRKVFVGRCTEDMTEDELREFFSQYGDVMDVFIPKPFRAFAFVTFADDQIAQSLCGEDLIIKGISVHISNAEPKHNSNRQLERSGRFGGNPGGFGNQGGFGNSRGGGAGLGNNQGSNMGGGMNFGAFSINPAMMAAAQAALQSSWGMMGMLASQQNQSGPSGNNQNQGNMQREPNQAFGSGNNSYSGSNSGAAIGWGSASNAGSGSGFNGGFGSSMDSKSSGWGM
NF-κB gene activation (4κB^wt-luc reporter), compared to full length TDP-43^wt [2]: 2 fold
